In patent US20240343794A1 (UNITED KINGDOM RESEARCH AND INNOVATION, published 2024):

Target: T1, human IL-25R (IL-17BR) on human ILCs/ILC2s from primary CRC samples (human, UniProt Q9NRM6 18-502)
T1 construct: Endogenous receptor on primary patient cells; also called interleukin-17 receptor B
T1 sequence: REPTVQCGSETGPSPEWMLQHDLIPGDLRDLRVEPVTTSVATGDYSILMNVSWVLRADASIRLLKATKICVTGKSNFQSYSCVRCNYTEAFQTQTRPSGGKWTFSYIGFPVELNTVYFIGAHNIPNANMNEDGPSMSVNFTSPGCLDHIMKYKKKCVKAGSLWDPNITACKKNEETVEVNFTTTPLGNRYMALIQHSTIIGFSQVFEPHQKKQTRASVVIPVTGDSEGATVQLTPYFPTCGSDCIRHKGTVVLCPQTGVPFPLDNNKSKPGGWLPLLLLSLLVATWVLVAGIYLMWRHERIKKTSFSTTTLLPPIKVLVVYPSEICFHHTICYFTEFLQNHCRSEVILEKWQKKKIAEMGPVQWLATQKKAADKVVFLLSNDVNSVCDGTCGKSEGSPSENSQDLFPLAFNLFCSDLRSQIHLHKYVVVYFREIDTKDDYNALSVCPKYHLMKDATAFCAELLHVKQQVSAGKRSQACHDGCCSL
Experiment: Flow cytometry of a primary human CRC sample stained with biotinylated D9.2 plus streptavidin-BV421. Cells were pre-gated on Live CD45+, then Lin- CD4-, CD127+, and CRTH2+ for ILC2.
Protocol: Subsequently, samples were digested with 62.5 μg/mL Liberase TL (Roche) and 0.125 KU/mL DNase I (Sigma) in RPMI+2% FCS+10 mM HEPES at 37° C., shaking, for 45 minutes to collect lamina propria cells. After digestion, cells were passed through a 70 μm cell strainer and washed with PBS+2% FCS before antibody staining. Mesenteric lymph nodes were mechanically dissociated in RPMI, filtered through a 50 μm cell strainer, and washed with PBS+2% FCS before antibody staining. Fresh, surgically-resected human CRC and adjacent normal tissue were collected in sterile PBS and transported on ice before sample processing. Samples were mechanically dissociated into small pieces and digested with 100 μg/mL Liberase TM (Roche) and 0.2 KU/mL DNase I (Sigma) in RPMI, and incubated at 37° C. for 30 minutes. Subsequently, cells were filtered through a 70 μm cell strainer and washed with PBS+2% FCS before antibody staining for flow cytometry.
For surface staining, single cell suspensions were 333 blocked with anti-CD16/32 antibody (Fc block, clone 2.4G2) and Human TruStain FcX (Biolegend, 422302) for mouse and human samples in PBS+2% FCS respectively, and incubated with fluorochrome-conjugated or biotinylated antibodies on ice for 30 minutes in the dark. If necessary, samples were then incubated with fluorochrome-conjugated streptavidin on ice for a further 30 minutes.

binding result: binds
B1: anti-IL25R monoclonal antibody (clone D9.2) (antibody, V domains shown)
VH: QVQLQQPGAELVRPGASVKLSCKTSGYTFISYWMNWVKQGPEQGLEWIGRIDPYDSEIQYNQKFKDKAILTVDKSSSAAYMQLISLTSEDSAVYYCARSGGFDWFAYWGQGTLVTVSA
VL: DIQMTQSPASLSVSVGETVTITCRASENINSNLAWYQQKKGKSPQLLVYDVTNLADGVPSRFSGSGSGTQYSLKINSLQSEDFGSYYCQHFWRPPYTFGGGTNLEIK
notes: Murine antibody; also called IL17BR (D9.2, AF647); IL17BR (D9.2, biotin)
